Experimental data: the domain aggregation screens of Martell et al. (2025)

Test: soluble fraction after stress (log2 fold change); higher = more stays soluble; pooled small domains, quantitative proteomics
Conditions: stress: 75 degC
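Note: 20 min heating vs room temperature control held 20 min.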

Sequence	soluble fraction (log2)
HMTETELYDEVNRLIGLHLSERDRMILIMRDRDEFEIDAIAARTGLSEGNIRLILSRARRTVREAYRNNI	-4.11
HMTETNSVTINERLTLYRRSRSGRWQARVKLNTGEWHRFSTGTADFEKAKESAHRELHNVGFRAENNLPQ	-1.16
HMTFDWAAYEISEKEIRVMSLVAEGFSNKEIAQELFLSEGTVRNYISNILEKLGLRDRTQLAVHYLKAV	-3.83
HMTFENMFIENSGETLDREFLVENLRGISWQSYDRSVDVLVSRLRGKLGETPNNTRFIKTIHGVGYKFIGE	0.353
HMTFGENLIRLRRQQGLSQEQLGMRIGVSRQTVSKWELNDTTPEMEKLIALADLFGLSLDELTGRV	-0.974
HMTFNLDVDGDDQVTALGDGLMIIRKLFGATFAGDALTNKAISPDATRTTDEIHAYIEKGITSGVLD	-0.403
HMTFPAILRELLEKHPQTGKRTTLKELGEAVGTRQQSISLYRNGDTQPSPDILVRIAAFFGVSVDYLL	-0.499
HMTFPYTSLKDAPKNMKEIDGVPLTLDQVNQIAKVADSIGVSKEKNGYAIAKSQFKKSHHIENNRWVKNK	-0.179
HMTFVHTQIEATKEWIISHPLDKHPAVAVVDSAGSIVIGEVDYISKSIVRLRFTAEFSGKAYL	-2.06
HMTGAEGKLARYLLTVPSGEPLRLSATDLAKRLGISRASLYRAFQALEDARLIRREGKSMYVLDPAGLEGV	-0.723
HMTGENWAERSRQLAAAGLLVLGKEAQEKIASLPNLIPLIEAAAASDTRLLNAQTIDELLSFVPTEETI	-0.104
HMTGESVPAPLSGTIFKILVAPGEQVEEGQTVIILEAMKMETEISAPRSGVVGAINIKEGDSVQVGQSLFT	0.232
HMTGIKISVDRLQIGNYVKLPLNWKDHPFLFSSFAIKSQEEIDLIRRLGLKQVIMFPDKSSMPPKPV	-1.55
HMTGLSNFEFNQIKLDLMHELTQTPLRLTDLVNRITSFENEKTITVIRFLVDEGILLLKDDTLSVAKID	-3.06
HMTGMEAAEFGKRIMKLRKQKGMTQSKLAEQINVSNKAISRWETGEGFPEITLLKPLAKALGTTVDELFGE	-0.334
HMTGMEKFLTIPSIRESTAAFEREYLIHYLDENAWQVSKTAAAIGIERTTLYKKMKQLGIVPIEE	-3.22
HMTGNWRQMHKVKSKETIYGIAKEYGITVDELTKANPGMEAPGYTLKKGDYIFIPYATADANV	-0.432
HMTGQEGLIGAHGVALTRLSNEEGEVKVQGEIWQARSDQEVAKGASIEVVHVDGLVLTVRPQH	-0.0319
HMTGQLTEEELKQRQERAMSNPEIQGILSDPVMRQVLQDMSTDPKAAAEHQRNPTIMAKIQKLINAGIVQV	0.00889
HMTGSETLQDIFAHLEAGTVRTALSLIPRLDAVEYEQNRQRIAELAGVRPSALDDLRKQAKREEN	≥ 1.04
HMTGTKEQQVVMLNNILQKQLQAFELQGKRDYPMVTMKNMYNTLSKMVENAGLQTVESYFVDPIKGQQM	-0.694
HMTGVEAIERYLASGVIPGVGPVLAKRLVERFGARTLEVIEDSPRRLTQVPGIGRQKARQIHQALKAQRE	-0.406
HMTGYVMIRVDGLSLEKFLNMAAEAGVRVSDVRRASYTVLYAVVSPRDLKKLQSVAPEKYTVTVR	-1.18
HMTHANAALTPRHRLKVARLVVDEGWPVSEVAARFQVSWPTVKRWADRYRAGQSMQDRSSRP	-1.96
HMTHEAEDLNALRMMVRDPIFSSDEPDLQQLRGAVAHAPQFVDRFKELYNDYQRLAEFVQNSL	-0.993
HMTHFRTDERRREILSTIEADGRVSVSEIASRFDVSPVTIRSDLNYLAIQGKLKRVRGGAVLLDH	-1.17
HMTIDNPESQKIMDMVPFFFQSRNYDEAIEALTYVIEQEPQFSEAYNKRATFYFMMGDLENSMKDIEITLA	-0.29
HMTIGIGKSLDFNTSGEKAYRIYNFKGAYVGTFKASDMTSLKNEVQKSNVKAGAYMVRSLDGHVNRLIEIK	-1.49

Sequence	soluble fraction (log2)
HMTIGKIVNIIEGSYANVRSAPDQNSEPIGRAYPGDAFLVDPLGSSGDWVKVTYEGQSGFIFQAYISV	-3.94
HMTIGKRIKRRRIELKMSIDSLARTIGKDRSTVYRYESGAIDKVSSDVLAKLATALNTTPAYLIGL	-4.61
HMTIKNHIDEILKKEPFILENIKNGLINISALARQIEPQLSRKVGKKLNVNAIIMTIKRMEIDQLNK	-2.25
HMTIPNGTVVNGTVLEAREAGAYLVRVAGQTLTAQANLPLLVGQHFRAVWDSSGDIPVLRLSDAEQALLGK	-0.362
HMTIPRLPFAFAKRFGIVLDNRPSGFVAAHKEGLLPHVLLEVQRFLGDAYTLEVVSDDDFERILGQVYQT	-3.72
HMTIPSYAEAVRYVRRQPRINTSTLADGLGIRWSLALDYLERMARSGVVGAIEDDGWWPVAR	-0.977
HMTIRIPEEEYLTRAKRAAQMTAERGLDALFLFGSEGDFQNVRYFTSVTPIWERLGVVITASGKAAMLTGP	-0.145
HMTIRPEDVELVPAEDGYMQGDVVSNIFKGVHYELEVKANGYDWMVHTTKYVEVGSHVGIKVIPFNIQV	0.322
HMTISPYTKDDFLKGTKPFEDVYAHKADPFVHDRALEQMTIWAKSVGVNGFKKLYKAYIDSLRIKNKEI	-0.315
HMTKAGVDAWTRGDYAAAVKEWQAQAAKGDADAIFNLGQAFKLGKGVPQDLIKAEQLFGQAAA	0.246
HMTKDEIIIQSIIDAAKKLMQQYGLNKTTMEDIAKEAGKGKSTLYHYFKSKEEIFDQVINQEID	0.0589
HMTKEEFLDEIKKELGFMPYEEVIKAEKYFESYFNGSEADEKVIERFGSPKYAAQNYYRTHVAN	0.029
HMTKEEFLYELKKELSALDSAEATAYNLRYYSDYIDAEIAKGRSEQEVLDELGNPRWLVNSIKESG	-0.139
HMTKGDRIKARREELGLTQTDLAEAISSTKQNIYKYENNIISNIPSDKVEAIAEVLKISPAYLMGWGDE	-0.0377
HMTKGFSIQDISLSKSTMTFLQQNKITDLASLLSMSKSQIEGMKGFKPKMIQEIEKNLDKVGLVLAQD	-0.243
HMTKGVKVEIGTEEASVDLYVVMEYGTPIQKAAYDAQESVRKAIETMTNLHVVRVDVHVQGVSF	-0.466
HMTKGVWHTVKKGENLYRISLYYEVPQQEIKKANKIETENIVVGQKLFIPNTTKKSPIFALTP	-1.72
HMTKIDYSINQIYSLRNIENITIVLKDKRSFTGKILKIYWQNGSKIILFTTETRNYKFKEYEISEIYKS	-1.02
HMTKIEYTEQEFNDFIQAYKNNRKMFPEDYIVKTQVVFINKGFSKSQADMIIAQIETRLRLQGE	-2.91
HMTKIKAIFFDIDGTIRSFKTKTIPENTANTLKKLKEQGIKIFIATGRAPFHTTFLNDLLDFKFDGYITIN	-0.659
HMTKKSLFNQYLDDQKRLDIVTLQKAELVDLHKLADELNIDQYNQLKKNELIFKILQSNPSE	0.162
HMTKNEFLQGLKEELEGRVTHSAIQENIRYYDDYISQEVLKGSTEEEVTESLGGPRIIARTIVDAAYD	0.0243
HMTKPLHELLSQREFQVFTQLAAGRSVGEIAQQLSLSSNTVSTYRARILEKTGTRNDVELALYAIRR	-2.31
HMTKPTLMEVEIKGAIQNPGVYTLKRNSSISKLIKMSGPLLENADTSSISFTHILQDKDVVVIPEIK	-0.194
HMTKQEYLNQLKNELVKQGVADAEDVVTEYEQHFAFKLADGFGEEEIAKKLGDPAAIASQFVG	0.669
HMTKQMELLAQGAAKLSVDLNQRQLDQLQTYYRELVDWNQRMNLTAITQYEEVQVKHFLDSL	-0.477
HMTKRKNTEFRQQQIIEAAAKLIFKYGSEHLTVKRIAAQVGISEAAIYRHFTSKKSILSFLLSHIEE	-0.362
